From patent US20150239981A1 (Hoffmann-La Roche, published 2015)

Columns and labels:
FcγRI = target: T1, FcγRI (human, UniProt P12314 16-288, limits assumed); assay: SPR Biacore, FIG. 1b
T1 construct: also called FcγR1; FcγRI receptor
Procedure: (§1) Binding affinities of different FcγRs towards immunoglobulins were measured by Surface Plasmon Resonance (SPR) using a Biacore T100 instrument (GE Healthcare) at 25° C.

FcγRIIIA-V158 = target: T2, FcγRIIIA-V158 (human, UniProt P08637 17-208, limits assumed); assay: SPR Biacore, antibody immobilised, receptor as analyte, FIG. 1e
T2 construct: Soluble analyte in SPR, 0 to 12800 nM; construct not described; also called FcγRIIIA receptor
Procedure: as §1

T1 sequence (P12314 16-288 limits assumed): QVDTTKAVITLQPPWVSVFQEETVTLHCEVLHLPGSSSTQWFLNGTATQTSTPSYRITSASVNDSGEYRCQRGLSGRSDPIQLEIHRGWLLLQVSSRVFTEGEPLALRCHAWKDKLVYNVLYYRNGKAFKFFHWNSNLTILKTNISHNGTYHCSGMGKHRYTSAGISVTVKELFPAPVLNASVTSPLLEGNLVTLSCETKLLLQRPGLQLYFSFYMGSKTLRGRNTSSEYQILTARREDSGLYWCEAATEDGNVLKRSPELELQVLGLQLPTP
T2 sequence (P08637 17-208 F176V limits assumed): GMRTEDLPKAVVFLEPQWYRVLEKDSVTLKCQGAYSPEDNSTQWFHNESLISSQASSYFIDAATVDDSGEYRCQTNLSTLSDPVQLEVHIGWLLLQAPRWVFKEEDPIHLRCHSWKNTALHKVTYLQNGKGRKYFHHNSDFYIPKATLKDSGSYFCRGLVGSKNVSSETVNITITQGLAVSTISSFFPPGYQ

| Binder | binding result (FcγRI) | binding result (FcγRIIIA-V158) |
| --- | --- | --- |
| CD9 antibody IgG1-LALA (mAb 40A746.2.3) (antibody, also called chim-hu-IgG1-LALA) heavy: not shown light: DIQMTQTTSSLSASLGDRVTISCSASQGISNYLNWYQQKPDGNVKLLIYYTSSLHSGVPSRFSGSGSGTDYSLTISNLEPEDIATYYCQQYSKLPYTFGGGTKLEIKRTVAAPSVFIFPPSDEQLKSGTASVVCLLNNFYPREAKVQWKVDNALQSGNSQESVTEQDSKDSTYSLSSTLTLSKADYEKHKVYACEVTHQGLSSPVTKSFNRGEC | binds | binds |
| CD9 antibody IgG4-SPLE (mAb 40A746.2.3) (antibody, also called chim-hu-IgG4-SPLE) heavy: not shown light: DIQMTQTTSSLSASLGDRVTISCSASQGISNYLNWYQQKPDGNVKLLIYYTSSLHSGVPSRFSGSGSGTDYSLTISNLEPEDIATYYCQQYSKLPYTFGGGTKLEIKRTVAAPSVFIFPPSDEQLKSGTASVVCLLNNFYPREAKVQWKVDNALQSGNSQESVTEQDSKDSTYSLSSTLTLSKADYEKHKVYACEVTHQGLSSPVTKSFNRGEC | binds | binds |
| CD9 antibody IgG1-P329G (mAb 40A746.2.3) (antibody, also called chim-hu-IgG-WT-P329G; TA IgG1 P329G) heavy: not shown light: DIQMTQTTSSLSASLGDRVTISCSASQGISNYLNWYQQKPDGNVKLLIYYTSSLHSGVPSRFSGSGSGTDYSLTISNLEPEDIATYYCQQYSKLPYTFGGGTKLEIKRTVAAPSVFIFPPSDEQLKSGTASVVCLLNNFYPREAKVQWKVDNALQSGNSQESVTEQDSKDSTYSLSSTLTLSKADYEKHKVYACEVTHQGLSSPVTKSFNRGEC | binds | – |
